Reference: paper PMC9239190
Where a chain is given by its changes, count along the chain named.

Experiments:
[1] = target: T1, AdpA (Streptomyces coelicolor) (UniProt Q9L062); assay: EMSA; settings: EMSA: 20 mM Tris-HCl, 2 mM EDTA, 20 mM KCl, 0.5 mM DTT, pH 8.0, 30 C 20 min, 16.5-22 nM probe; FP: 10 mM Tris-HCl, 75 mM NaCl, pH 7.5, 37 C 15 min, 1 nM FAM …
T1 sequence: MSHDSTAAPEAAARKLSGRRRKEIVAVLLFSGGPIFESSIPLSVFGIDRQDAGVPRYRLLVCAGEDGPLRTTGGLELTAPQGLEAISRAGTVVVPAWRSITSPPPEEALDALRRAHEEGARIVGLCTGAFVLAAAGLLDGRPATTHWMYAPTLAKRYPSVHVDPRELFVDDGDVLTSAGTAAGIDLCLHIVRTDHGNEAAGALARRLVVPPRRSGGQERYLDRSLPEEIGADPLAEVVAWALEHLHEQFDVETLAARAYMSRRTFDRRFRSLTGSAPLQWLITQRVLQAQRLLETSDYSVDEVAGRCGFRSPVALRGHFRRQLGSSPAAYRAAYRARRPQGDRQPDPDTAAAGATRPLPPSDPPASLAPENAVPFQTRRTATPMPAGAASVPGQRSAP

[2] = target: T2, AdpA C62S C62S (Streptomyces coelicolor) (UniProt Q9L062); assay: EMSA; settings: EMSA: 20 mM Tris-HCl, 2 mM EDTA, 20 mM KCl, 0.5 mM DTT, pH 8.0, 30 C 20 min, 16.5-22 nM probe; FP: 10 mM Tris-HCl, 75 mM NaCl, pH 7.5, 37 C 15 min, 1 nM FAM …
T2 sequence: T1 sequence with C62S

With “ACACATCCCGCATCGGTGATTACATGGACACGTCCCAATAAGTTGAATCTCATCTGCGCCCCCGTCGAGATTCTCCGTCTCCTGGGGGCGACAATAACAGGCCTACTCAACAGATTTCAATGTGCTTGCCGTCACAAGCGATCTCCTATTGATCAAAAATTAATCAGTGCAGCGAGCTGCACTGATTAATTTTTGCTGGATTTTACCGAGAGGCAGTGGTCGAGGCTTCCGAATCAATAGAATCTGGCATTCCTGATACGGCTGGGTCC (double strand) [PactII-4 probe]” the binding [1] was “binds”.
“GCACTCCAGTCGGTTACCCAGCCCATACCGGCGCCGTCCTCTCCCGAATCGAGGCTCCCCCACGGCGGCAGCGGCATATTCACCGCCGCCAGTTGAGGACGTTACGGAAGGTGGGCACAGCGCAACACCCCCTTCGGGCCCAATCTTGAATGGCCCGAACGGACTATGGGTAAGCGGCAGATCACCCGGGGGAGTGAGCTGGCGACATGCGCGACGATCCCGACATTCAGGTCATCTCTGTTGCGCCACAACGGACACCGATTGACACACGAGGCGGATTCGGA (double strand) [PwblA probe]” was tested, and the binding [2] was “binds” and the binding [1] was “binds”.
